Test results from patent US20260049138A1 (Chugai, published 2026).
Positions count from the first letter of the chain named. Numbers in names are those of the source.

B1: GLS3000 R54D one-arm antibody (antibody, human IgG1, kappa, L234A L235A, N297A, name in Kabat numbering)
heavy: QVQLVESGGGVVQPGRSLRLSCAASGFTFSNAWMHWVRQAPGKGLEWVAQIKAKSNNYATYYAESVKGRFTISRDDSKNSLYLQMNSLKTEDTAVYYCRYVHYGAYYGVDAWGQGTTVTVSSASTKGPSVFPLAPSSKSTSGGTAALGCLVKDYFPEPVTVSWNSGALTSGVHTFPAVLQSSGLYSLSSVVTVPSSSLGTQTYICNVNHKPSNTKVDKKVEPKSCDKTHTCPPCPAPEAAGGPSVFLFPPKPKDTLMISRTPEVTCVVVDVSHEDPEVKFNWYVDGVEVHNAKTKPREEQYASTYRVVSVLTVLHQDWLNGKEYKCKVSNKALPAPIEKTISKAKGQPREPQVYTLPPSRCELTKNQVSLSCAVKGFYPSDIAVEWESNGQPENNYKTTPPVLDSDGSFFLVSKLTVDKSRWQQGNVFSCSVMHEALHNHYTQKSLSLSPDYKDDDDK
chain: EPKSSDKTHTCPPCPAPELLGGPSVFLFPPKPKDTLMISRTPEVTCVVVDVSHEDPEVKFNWYVDGVEVHNAKTKPREEQYNSTYRVVSVLTVLHQDWLNGKEYKCKVSNKALPAPIEKTISKAKGQPREPQVCTLPPSRDELTKNQVSLWCLVKGFYPSDIAVEWESNGQPENNYKTTPPVLDSDGSFFLYSKLTVDKSRWQQGNVFSCSVMHEALHNRYTQKSLSLSP
light: DIVMTQSPLSLPVTPGEPASISCRSSQSLVHSNRNTYLHWYQQKPGQAPRLLIYKVSNDFSGVPDRFSGSGSGTDFTLKISRVEAEDVGVYYCGQGTQVPYTFGQGTKLEIKRTVAAPSVFIFPPSDEQLKSGTASVVCLLNNFYPREAKVQWKVDNALQSGNSQESVTEQDSKDSTYSLSSTLTLSKADYEKHKVYACEVTHQGLSSPVTKSFNRGEC
B2: GLS3000 S27eD one-arm antibody (antibody, human IgG1, kappa, L234A L235A, N297A, name in Kabat numbering)
heavy: B1 heavy
chain: B1 chain
light: B1 light with S32D, D59R
B3: GLS3000 S27eG one-arm antibody (antibody, human IgG1, kappa, L234A L235A, N297A, name in Kabat numbering)
heavy: B1 heavy
chain: B1 chain
light: B1 light with S32G, D59R
B4: GLS3000 S25T one-arm antibody (antibody, human IgG1, kappa, L234A L235A, N297A, name in Kabat numbering)
heavy: B1 heavy
chain: B1 chain
light: B1 light with S25T, D59R
B5: GLS3000 S25P one-arm antibody (antibody, human IgG1, kappa, L234A L235A, N297A, name in Kabat numbering)
heavy: B1 heavy
chain: B1 chain
light: B1 light with S25P, D59R
B6: GLS3000 S25V one-arm antibody (antibody, human IgG1, kappa, L234A L235A, N297A, name in Kabat numbering)
heavy: B1 heavy
chain: B1 chain
light: B1 light with S25V, D59R
B7: GLS3000 S25L one-arm antibody (antibody, human IgG1, kappa, L234A L235A, N297A, name in Kabat numbering)
heavy: B1 heavy
chain: B1 chain
light: B1 light with S25L, D59R
B8: GLS3000 S26P one-arm antibody (antibody, human IgG1, kappa, L234A L235A, N297A, name in Kabat numbering)
heavy: B1 heavy
chain: B1 chain
light: B1 light with S26P, D59R
B9: GLS3000 S25M one-arm antibody (antibody, human IgG1, kappa, L234A L235A, N297A, name in Kabat numbering)
heavy: B1 heavy
chain: B1 chain
light: B1 light with S25M, D59R
B10: GLS3000 S25I one-arm antibody (antibody, human IgG1, kappa, L234A L235A, N297A, name in Kabat numbering)
heavy: B1 heavy
chain: B1 chain
light: B1 light with S25I, D59R
B11: GLS3000 R54W one-arm antibody (antibody, human IgG1, kappa, L234A L235A, N297A, name in Kabat numbering)
heavy: B1 heavy
chain: B1 chain
light: B1 light with D59W
B12: GLS3000 S27aP one-arm antibody (antibody, human IgG1, kappa, L234A L235A, N297A, name in Kabat numbering)
heavy: B1 heavy
chain: B1 chain
light: B1 light with S28P, D59R
B13: GLS3000 R54G one-arm antibody (antibody, human IgG1, kappa, L234A L235A, N297A, name in Kabat numbering)
heavy: B1 heavy
chain: B1 chain
light: B1 light with D59G
B14: GLS3000 S27aI one-arm antibody (antibody, human IgG1, kappa, L234A L235A, N297A, name in Kabat numbering)
heavy: B1 heavy
chain: B1 chain
light: B1 light with S28I, D59R
B15: GLS3000 S27eH one-arm antibody (antibody, human IgG1, kappa, L234A L235A, N297A, name in Kabat numbering)
heavy: B1 heavy
chain: B1 chain
light: B1 light with S32H, D59R
B16: GLS3000 R77S one-arm antibody (antibody, human IgG1, kappa, L234A L235A, N297A, name in Kabat numbering)
heavy: B1 heavy
chain: B1 chain
light: B1 light with D59R, R82S
B17: GLS3000 S27aG one-arm antibody (antibody, human IgG1, kappa, L234A L235A, N297A, name in Kabat numbering)
heavy: B1 heavy
chain: B1 chain
light: B1 light with S28G, D59R
B18: GLS3000 S27aN one-arm antibody (antibody, human IgG1, kappa, L234A L235A, N297A, name in Kabat numbering)
heavy: B1 heavy
chain: B1 chain
light: B1 light with S28N, D59R
B19: GLS3000 S27aY one-arm antibody (antibody, human IgG1, kappa, L234A L235A, N297A, name in Kabat numbering)
heavy: B1 heavy
chain: B1 chain
light: B1 light with S28Y, D59R
B20: GLS3000 R54Q one-arm antibody (antibody, human IgG1, kappa, L234A L235A, N297A, name in Kabat numbering)
heavy: B1 heavy
chain: B1 chain
light: B1 light with D59Q
B21: GLS3000 S27aE one-arm antibody (antibody, human IgG1, kappa, L234A L235A, N297A, name in Kabat numbering)
heavy: B1 heavy
chain: B1 chain
light: B1 light with S28E, D59R
B22: GLS3000 S25D one-arm antibody (antibody, human IgG1, kappa, L234A L235A, N297A, name in Kabat numbering)
heavy: B1 heavy
chain: B1 chain
light: B1 light with S25D, D59R
B23: GLS3000 R54P one-arm antibody (antibody, human IgG1, kappa, L234A L235A, N297A, name in Kabat numbering)
heavy: B1 heavy
chain: B1 chain
light: B1 light with D59P
B24: GLS3000 R54S one-arm antibody (antibody, human IgG1, kappa, L234A L235A, N297A, name in Kabat numbering)
heavy: B1 heavy
chain: B1 chain
light: B1 light with D59S
B25: GLS3000 S25A one-arm antibody (antibody, human IgG1, kappa, L234A L235A, N297A, name in Kabat numbering)
heavy: B1 heavy
chain: B1 chain
light: B1 light with S25A, D59R
B26: GLS3000 S27eE one-arm antibody (antibody, human IgG1, kappa, L234A L235A, N297A, name in Kabat numbering)
heavy: B1 heavy
chain: B1 chain
light: B1 light with S32E, D59R
B27: GLS3000 S26E one-arm antibody (antibody, human IgG1, kappa, L234A L235A, N297A, name in Kabat numbering)
heavy: B1 heavy
chain: B1 chain
light: B1 light with S26E, D59R
B28: GLS3000 S27eF one-arm antibody (antibody, human IgG1, kappa, L234A L235A, N297A, name in Kabat numbering)
heavy: B1 heavy
chain: B1 chain
light: B1 light with S32F, D59R
B29: GLS3000 S27eA one-arm antibody (antibody, human IgG1, kappa, L234A L235A, N297A, name in Kabat numbering)
heavy: B1 heavy
chain: B1 chain
light: B1 light with S32A, D59R
B30: GLS3000 R54E one-arm antibody (antibody, human IgG1, kappa, L234A L235A, N297A, name in Kabat numbering)
heavy: B1 heavy
chain: B1 chain
light: B1 light with D59E
B31: GLS3000 R54T one-arm antibody (antibody, human IgG1, kappa, L234A L235A, N297A, name in Kabat numbering)
heavy: B1 heavy
chain: B1 chain
light: B1 light with D59T
B32: GLS3000 S25E one-arm antibody (antibody, human IgG1, kappa, L234A L235A, N297A, name in Kabat numbering)
heavy: B1 heavy
chain: B1 chain
light: B1 light with S25E, D59R
B33: GLS3000 S26D one-arm antibody (antibody, human IgG1, kappa, L234A L235A, N297A, name in Kabat numbering)
heavy: B1 heavy
chain: B1 chain
light: B1 light with S26D, D59R
B34: GLS3000 S27aD one-arm antibody (antibody, human IgG1, kappa, L234A L235A, N297A, name in Kabat numbering)
heavy: B1 heavy
chain: B1 chain
light: B1 light with S28D, D59R

target: T1, CD3ε homodimer protein (human, UniProt P07766 23-126, limits assumed); test: SPR Biacore T200, CD3ε homodimer on chip;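 also: Light-chain single-residue variant antibodies injected over amine-coupled CD3ε homodimer on a CM4 chip at 25 °C, bound amount divided by that of the GLS3000-containing antibody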
T1 construct: also called CD3 (CD3ε)
T1 sequence (P07766 23-126 limits assumed): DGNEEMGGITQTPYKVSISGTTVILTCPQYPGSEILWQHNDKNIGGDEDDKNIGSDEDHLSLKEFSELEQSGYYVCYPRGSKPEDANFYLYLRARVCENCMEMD

Row | ratio of amount bound vs unaltered GLS3000 | Binder
1 | 0.36 | B1
2 | 0.69 | B2
3 | 1.04 | B3
4 | 0.83 | B4
5 | 1.01 | B5
6 | 0.73 | B6
7 | 0.24 | B7
8 | 0.78 | B8
9 | 0.31 | B9
10 | 0.53 | B10
11 | 0.78 | B11
12 | 0.99 | B12
13 | 0.67 | B13
14 | 1 | B14
15 | 1.23 | B15
16 | 0.92 | B16
17 | 1.03 | B17

Row | ratio of amount bound vs unaltered GLS3000 | Binder
18 | 1.1 | B18
19 | 1.1 | B19
20 | 0.68 | B20
21 | 0.81 | B21
22 | 0.18 | B22
23 | 0.84 | B23
24 | 0.79 | B24
25 | 0.92 | B25
26 | 0.76 | B26
27 | 0.74 | B27
28 | 1.32 | B28
29 | 1.03 | B29
30 | 0.58 | B30
31 | 0.65 | B31
32 | 0.21 | B32
33 | 0.86 | B33
34 | 0.79 | B34
